Results published in patent publication US20240238445A1, “INHIBITORS AND USES THEREOF” (NEURACLE SCIENCE CO., LTD., priority 2021, published 2024).

B1: LRRC4B (364-713): FLAG-tagged LRRC4B deletion construct, amino acids 364-713 of SEQ ID NO: 2 (protein)
chain: PVIVEPPTDLNVTEGMAAELKCRTGTSMTSVNWLTPNGTLMTHGSYRVRISVLHDGTLNFTNVTVQDTGQYTCMVTNSAGNTTASATLNVSAVDPVAAGGTGSGGGGPGGSGGVGGGSGGYTYFTTVTVETLETQPGEEALQPRGTEKEPPGPTTDGVWGGGRPGDAAGPASSSTTAPAPRSSRPTEKAFTVPITDVTENALKDLDDVMKTTKIIIGCFVAITFMAAVMLVAFYKLRKQHQLHKHHGPTRTVEIINVEDELPAASAVSVAAAAAVASGGGVGGDSHLALPALERDHLNHHHYVAAAFKAHYSSNPSGGGCGGKGPPGLNSIHEPLLFKSGSKENVQETQI
modifications: FLAG tag
B2: LRRC4 peptide fragment: LRRC4 protein fragment, amino acids 353-527 of SEQ ID NO: 1 (protein)
chain: PFIMDAPRDLNISEGRMAELKCRTPPMSSVKWLLPNGTVLSHASRHPRISVLNDGTLNFSHVLLSDTGVYTCMVTNVAGNSNASAYLNVSTAELNTSNYSFFTTVTVETTEISPEDTTRKYKPVPTTSTGYQPAYTTSTTVLIQTTRVPKQVAVPATDTTDKMQTSLDEVMKTTK
B3: LRRC4B (36-713): FLAG-tagged LRRC4B deletion construct, amino acids 36-713 of SEQ ID NO: 2 (protein)
chain: AGGGGVAVTSAAGGGSPPATSCPVACSCSNQASRVICTRRDLAEVPASIPVNTRYLNLQENGIQVIRTDTFKHLRHLEILQLSKNLVRKIEVGAFNGLPSLNTLELFDNRLTTVPTQAFEYLSKLRELWLRNNPIESIPSYAFNRVPSLRRLDLGELKRLEYISEAAFEGLVNLRYLNLGMCNLKDIPNLTALVRLEELELSGNRLDLIRPGSFQGLTSLRKLWLMHAQVATIERNAFDDLKSLEELNLSHNNLMSLPHDLFTPLHRLERVHLNHNPWHCNCDVLWLSWWLKETVPSNTTCCARCHAPAGLKGRYIGELDQSHFTCYAPVIVEPPTDLNVTEGMAAELKCRTGTSMTSVNWLTPNGTLMTHGSYRVRISVLHDGTLNFTNVTVQDTGQYTCMVTNSAGNTTASATLNVSAVDPVAAGGTGSGGGGPGGSGGVGGGSGGYTYFTTVTVETLETQPGEEALQPRGTEKEPPGPTTDGVWGGGRPGDAAGPASSSTTAPAPRSSRPTEKAFTVPITDVTENALKDLDDVMKTTKIIIGCFVAITFMAAVMLVAFYKLRKQHQLHKHHGPTRTVEIINVEDELPAASAVSVAAAAAVASGGGVGGDSHLALPALERDHLNHHHYVAAAFKAHYSSNPSGGGCGGKGPPGLNSIHEPLLFKSGSKENVQETQI
modifications: FLAG tag
B4: LRRC4B (230-713): FLAG-tagged LRRC4B deletion construct, amino acids 230-713 of SEQ ID NO: 2 (protein)
chain: RLEELELSGNRLDLIRPGSFQGLTSLRKLWLMHAQVATIERNAFDDLKSLEELNLSHNNLMSLPHDLFTPLHRLERVHLNHNPWHCNCDVLWLSWWLKETVPSNTTCCARCHAPAGLKGRYIGELDQSHFTCYAPVIVEPPTDLNVTEGMAAELKCRTGTSMTSVNWLTPNGTLMTHGSYRVRISVLHDGTLNFTNVTVQDTGQYTCMVTNSAGNTTASATLNVSAVDPVAAGGTGSGGGGPGGSGGVGGGSGGYTYFTTVTVETLETQPGEEALQPRGTEKEPPGPTTDGVWGGGRPGDAAGPASSSTTAPAPRSSRPTEKAFTVPITDVTENALKDLDDVMKTTKIIIGCFVAITFMAAVMLVAFYKLRKQHQLHKHHGPTRTVEIINVEDELPAASAVSVAAAAAVASGGGVGGDSHLALPALERDHLNHHHYVAAAFKAHYSSNPSGGGCGGKGPPGLNSIHEPLLFKSGSKENVQETQI
modifications: FLAG tag
B5: LRRC4B (453-713): FLAG-tagged LRRC4B deletion construct, amino acids 453-713 of SEQ ID NO: 2 (protein)
chain: VSAVDPVAAGGTGSGGGGPGGSGGVGGGSGGYTYFTTVTVETLETQPGEEALQPRGTEKEPPGPTTDGVWGGGRPGDAAGPASSSTTAPAPRSSRPTEKAFTVPITDVTENALKDLDDVMKTTKIIIGCFVAITFMAAVMLVAFYKLRKQHQLHKHHGPTRTVEIINVEDELPAASAVSVAAAAAVASGGGVGGDSHLALPALERDHLNHHHYVAAAFKAHYSSNPSGGGCGGKGPPGLNSIHEPLLFKSGSKENVQETQI
modifications: FLAG tag
B6: LRRC4B (157-713): FLAG-tagged LRRC4B deletion construct, amino acids 157-713 of SEQ ID NO: 2 (protein)
chain: LSKLRELWLRNNPIESIPSYAFNRVPSLRRLDLGELKRLEYISEAAFEGLVNLRYLNLGMCNLKDIPNLTALVRLEELELSGNRLDLIRPGSFQGLTSLRKLWLMHAQVATIERNAFDDLKSLEELNLSHNNLMSLPHDLFTPLHRLERVHLNHNPWHCNCDVLWLSWWLKETVPSNTTCCARCHAPAGLKGRYIGELDQSHFTCYAPVIVEPPTDLNVTEGMAAELKCRTGTSMTSVNWLTPNGTLMTHGSYRVRISVLHDGTLNFTNVTVQDTGQYTCMVTNSAGNTTASATLNVSAVDPVAAGGTGSGGGGPGGSGGVGGGSGGYTYFTTVTVETLETQPGEEALQPRGTEKEPPGPTTDGVWGGGRPGDAAGPASSSTTAPAPRSSRPTEKAFTVPITDVTENALKDLDDVMKTTKIIIGCFVAITFMAAVMLVAFYKLRKQHQLHKHHGPTRTVEIINVEDELPAASAVSVAAAAAVASGGGVGGDSHLALPALERDHLNHHHYVAAAFKAHYSSNPSGGGCGGKGPPGLNSIHEPLLFKSGSKENVQETQI
modifications: FLAG tag
B7: LRRC4C peptide fragment: LRRC4C protein fragment, amino acids 354-527 of SEQ ID NO: 3 (protein)
chain: VIVEPPADLNVTEGMAAELKCRASTSLTSVSWITPNGTVMTHGAYKVRIAVLSDGTLNFTNVTVQDTGMYTCMVSNSVGNTTASATLNVTAATTTPFSYFSTVTVETMEPSQDEARTTDNNVGPTPVVDWETTNVTTSLTPQSTRSTEKTFTIPVTDINSGIPGIDEVMKTTK
B8: LRRC4B (364-576): FLAG-tagged LRRC4B deletion construct, amino acids 364-576 of SEQ ID NO: 2 (protein)
chain: PVIVEPPTDLNVTEGMAAELKCRTGTSMTSVNWLTPNGTLMTHGSYRVRISVLHDGTLNFTNVTVQDTGQYTCMVTNSAGNTTASATLNVSAVDPVAAGGTGSGGGGPGGSGGVGGGSGGYTYFTTVTVETLETQPGEEALQPRGTEKEPPGPTTDGVWGGGRPGDAAGPASSSTTAPAPRSSRPTEKAFTVPITDVTENALKDLDDVMKTTK
modifications: FLAG tag

What was measured:
[1] = molecular target: T1, FAM19A5 protein (Homo sapiens, UniProt Q7Z5A7); experiment: competitive inhibition ELISA; competitor: coated LRRC4B(453-576)-hFc
[2] = molecular target: T1, FAM19A5 protein; experiment: competitive inhibition ELISA; competitor: coated LRRC4B(36-576)-hFc
[3] = molecular target: T1, FAM19A5 protein; experiment: Co-immunoprecipitation of FLAG-tagged LRRC4 family deletion constructs/fragments with recombinant FAM19A5 in HEK293 cells; format: binding; conditions: HEK293 cells expressing FLAG-tagged construct, recombinant FAM19A5 1 μM 30 minutes; IP anti-FLAG, blot anti-FAM19A5 (3-2)
Protocol: To understand the interaction between FAM19A5 and members of the LRRC4 protein family, HEK293 cells were modified to express a FLAG-tagged member of the LRRC4 protein family, i.e., LRRC4C protein, LRRC4 protein, or LRRC4B protein. Then, the HEK293 cells or primary cortical neurons were treated with recombinant FAM19A5 protein (1 μM) for 30 minutes, and the binding between FAM19A5 protein and the different members of the LRRC4 protein family was assessed using both co-immunoprecipitation and immunofluorescence assays.
For the co-immunoprecipitation assay, cell lysates from the different FAM19A5-treated HEK293 cells were collected and immunoprecipitated with an anti-FLAG antibody, anti-FAM19A5 (1-65) antibody, or a human IgG antibody (control). Immunoprecipitated proteins were immunoblotted with anti-FLAG and anti-FAM19A5 (3-2) antibodies. For the immunofluorescence assay, the HEK293 cells treated with the recombinant FAM19A5 protein were immunostained with anti-FAM19A5 (3-2) (to detect FAM19A5 protein expression) and anti-FLAG antibodies (to detect member of the LRRC4 protein family). The primary cortical neurons treated with the recombinant FAM19A5 protein were immunostained with anti-FAM19A5 (3-2) and anti-LRRC4B antibodies. The nuclei were stained with Hoechst33342 (blue).
To determine the specific motif or domain of the LRRC4B protein that is responsible for the binding to a FAM19A5 protein, various FLAG-tagged LRRC4B deletion constructs were generated (see Table 6 below). HEK293 cells were transfected with the different deletion constructs and then treated with recombinant FAM19A5 protein as described in Example 1. Then, the cell lysates from the different HEK293 cells were immunoprecipitated with the anti-FLAG antibody. The immunoprecipitated proteins were immunoblotted with anti-FLAG and anti-FAM19A5 (3-2) antibodies.
As described in Example 2, all members of the LRRC4 protein family were capable of binding to FAM19A5 protein to varying degrees. Therefore, to compare the bindings domains, the amino acid sequences of the LRRC4B, LRRC4, and LRRC4C proteins were aligned. […] Therefore, to assess whether the corresponding positions of LRRC4 and LRRC4C were important in the binding of these proteins to FAM19A5 protein, cDNAs encoding either (i) LRRC4C protein fragment (amino acids 354-527 of SEQ ID NO: 3; SEQ ID NO: 66) or (ii) LRRC4 protein fragment (amino acids 353-527 of SEQ ID NO: 1; SEQ ID NO: 67) were constructed (see Table 7). HEK293 cells were transfected to express either of the protein fragments and then treated with recombinant FAM19A5 protein as described in Example 1. Then, the cell lysates from the different HEK293 cells were immunoprecipitated with the anti-FLAG antibody. The immunoprecipitated proteins were immunoblotted with anti-FLAG and anti-FAM19A5 (3-2) antibodies.
Target sequence in this assay (Q7Z5A7 44-132): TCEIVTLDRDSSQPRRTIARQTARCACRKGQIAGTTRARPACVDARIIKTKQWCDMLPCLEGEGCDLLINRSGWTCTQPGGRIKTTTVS

Row | Molecule | Inhibition rate (%) [1] | Inhibition rate (%) [2] | binding to FAM19A5 protein (co-immunoprecipitation) [3]
1 | GYTYFTTVTVETLATQPGEE [FB-20[A13]] | 27.2% | 51.4% | –
2 | B1 | – | – | able to bind to the FAM19A5 protein with varying degree
3 | GYTYFTTVTVETAETQPGEE [FB-20[A12]] | 56.2% | 73% | –
4 | B2 | – | – | able to bind to the FAM19A5 protein
5 | B3 | – | – | able to bind to the FAM19A5 protein with varying degree
6 | B4 | – | – | able to bind to the FAM19A5 protein with varying degree
7 | B5 | – | – | able to bind to the FAM19A5 protein with varying degree
8 | B6 | – | – | able to bind to the FAM19A5 protein with varying degree
9 | B7 | – | – | able to bind to the FAM19A5 protein
10 | B8 | – | – | able to bind to the FAM19A5 protein with varying degree
